Earlier results in US20130079279A1, “PHARMACEUTICAL COMPOSITION COMPRISING AVE0010 AND INSULIN GLARGINE” (SANOFI-AVENTIS DEUTSCHLAND GMBH, priority 2010, published 2013).

System: anti-lixisenatide antibodies
Settings: previous study ACT6011; end of a two week period after repeated injections

desPro^36Exendin-4(1-39)-Lys6-NH2 [lixisenatide]
Anti-lixisenatide antibodies: not detected
